Reference: patent publication US20210395394A1
Numbering of substitutions follows the chain as printed.

B1: Mutation 3 (antibody, mouse IgG2b, kappa, V domains shown)
VH: QVQLQQPGAELVRPGASVKLSCKASGSSFTNYWMNWVKQRPGQGLEWIGMINPSESETRINQKFKDKATLTVDKSSSTAYMQLSSLTAEDSAVYYCAKSGDFYTSYFDYWGQGTTLTVSS
VL: DIQLTQSPASLSASVGETVTITCRGSGNLHNYIAWYQQKQGKSPQLLVYNARTIADGVPSRFSGSGSGTQYSLKINSLQPEDFGSYYCQSFWSTYTFGGGTKLEIKR
B2: Mutation 4 (antibody, mouse IgG2b, kappa, V domains shown)
VH: B1 VH with W33F, N52H, F107W
VL: B1 VL
B3: Mutation 1 (antibody, mouse IgG2b, kappa, V domains shown)
VH: B1 VH with N52H
VL: B1 VL with I33L
B4: Mutation 2 (antibody, mouse IgG2b, kappa, V domains shown)
VH: B1 VH with W33F, N52H
VL: B1 VL with I33L, T94S
B5: anti-Pan-PLDH 9G7 monoclonal antibody (antibody, mouse IgG2b, kappa, V domains shown)
VH: B1 VH with W33F, F107W
VL: B1 VL with T94S
B6: WT 1-2 (antibody, mouse IgG2b, kappa, V domains shown)
VH: B1 VH with S27Y, W33F, E55D, I60V, K98R, S105T, F107W
VL: B1 VL with S26T, L29V, R52K, S90Y, T94S
B7: WT 1-4 (antibody, mouse IgG2b, kappa, V domains shown)
VH: B1 VH with S27Y, W33F, E55D, I60V, S105T, F107W
VL: B1 VL with L29V, R52K, I54V, S90Y, T94S
B8: WT 1-5 (antibody, mouse IgG2b, kappa, V domains shown)
VH: B1 VH with S27Y, W33F, I60V, D101E, S105T, F107W
VL: B1 VL with S26T, L29I, I54L, T94S
B9: WT 1-3 (antibody, mouse IgG2b, kappa, V domains shown)
VH: B1 VH with W33F, K98R, D101E, S105Y, F107W
VL: B1 VL with S26T, I54L, S90T, T94S

target: Pan-species-specific antigen Plasmodium Lactate DeHydrogenase (Pan-PLDH) protein; assay: indirect ELISA, recombinant MA protein coated 1 ug/ml, antibody 1.6 ng/ml

Row | OD value at 450 nm (refer to 630 nm) [OD] | Binder
1 | 0.274 | B1
2 | 0.251 | B2
3 | 0.339 | B3
4 | 0.297 | B4
5 | 0.205 | B5

target: Pan-species-specific antigen Plasmodium Lactate DeHydrogenase (Pan-PLDH) protein; assay: indirect ELISA, recombinant MA protein coated 1 ug/ml, antibody 0.32 ng/ml

Row | OD value at 450 nm (refer to 630 nm) [OD] | Binder
6 | 0.255 | B1
7 | 0.211 | B2
8 | 0.27 | B3
9 | 0.231 | B4
10 | 0.173 | B5

target: Pan-species-specific antigen Plasmodium Lactate DeHydrogenase (Pan-PLDH) protein; assay: indirect ELISA, recombinant MA protein coated 1 ug/ml, antibody 0 ng/ml (blank)

Row | OD value at 450 nm (refer to 630 nm) [OD] | Binder
11 | 0.053 | B1
12 | 0.066 | B2
13 | 0.06 | B3
14 | 0.072 | B4
15 | 0.072 | B5

target: Pan-species-specific antigen Plasmodium Lactate DeHydrogenase (Pan-PLDH) protein; assay: indirect ELISA, recombinant MA protein coated 1 ug/ml, antibody 200 ng/ml

Row | OD value at 450 nm (refer to 630 nm) [OD] | Binder
16 | 2.14 | B1
17 | 2.03 | B2
18 | 2.19 | B3
19 | 2.14 | B4
20 | 1.82 | B5

target: Pan-species-specific antigen Plasmodium Lactate DeHydrogenase (Pan-PLDH) protein; assay: indirect ELISA at four coating concentrations, KD calculated from half-maximal OD

Row | Kd [nM] | Binder
21 | 0.639 | B6
22 | 0.85 | B7
23 | 0.412 | B3
24 | 0.516 | B8
25 | 0.485 | B9
26 | 0.887 | B5

target: Pan-species-specific antigen Plasmodium Lactate DeHydrogenase (Pan-PLDH) protein; assay: indirect ELISA, recombinant MA protein coated 1 ug/ml, antibody 8 ng/ml

Row | OD value at 450 nm (refer to 630 nm) [OD] | Binder
27 | 1.01 | B1
28 | 0.939 | B2
29 | 1.1 | B3
30 | 1 | B4
31 | 0.635 | B5

target: Pan-species-specific antigen Plasmodium Lactate DeHydrogenase (Pan-PLDH) protein; assay: indirect ELISA, recombinant MA protein coated 1 ug/ml, antibody 1000 ng/ml

Row | OD value at 450 nm (refer to 630 nm) [OD] | Binder
32 | 2.23 | B1
33 | 2.15 | B2
34 | 2.26 | B3
35 | 2.21 | B4
36 | 1.94 | B5

target: Pan-species-specific antigen Plasmodium Lactate DeHydrogenase (Pan-PLDH) protein; assay: indirect ELISA, recombinant MA protein coated 1 ug/ml, antibody 40 ng/ml

Row | OD value at 450 nm (refer to 630 nm) [OD] | Binder
37 | 2.01 | B1
38 | 1.92 | B2
39 | 2.02 | B3
40 | 1.98 | B4
41 | 1.43 | B5
